According to patent US20100075434A1 (NATIONAL UNIVERSITY CORPORATION TOKYO MEDICAL AND DENTAL …, published 2010):
Changes are numbered by the printed parent chain. Square brackets hold non-standard residues; d marks the D form. * marks the point of attachment. NBD = O=[N+]([O-])c1ccc(*)c2nonc12; Dap = NC[C@H](N)C(=O)O; ClAc = O=C(CCl)*

How the values were obtained:
[1] = target: T1, fused protein of DsRed and PKC having at its N terminal end a tag polypeptide of sequence (A) (Homo sapiens (Human), UniProt Q05655 1-676); assay: fluorescence microscopy of permeabilized CHO.K1 cells, 1 µM probe, NBD against DsRed localization with and without PDBu
T1 construct: Expressed in the cytoplasm of CHO.K1 cells, which were permeabilized with saponin before the probe was added; also called tag-fused PKC
Protocol: Subsequently, a permeabilization buffer (20 mM Hepes, pH 7.4, 140 mM KCl, 50 μg/mL saponin, 5 mM oxalic acid) was added to the thus-prepared CHO.K1 cells. After left to stand on ice for 10 min, the cells were washed with PBS, followed by incubating on ice for 20 min in PBS. Thereafter, the cells were incubated in PBS at room temperature for 2 min and then 37° C. for 2 min. Further, the cells were incubated at 37° C. for 30 min in a conditioned medium (Ham's F12) to which a probe indicated by sequence (B) (probe concentration: 1 μM (Final conc.)) had been added.
Separately, before treated with the permeabilization buffer, the above-prepared CHO.K1 cells were treated for 10 min with 10 mM DMSO containing PDBu (phorbol 12,13 dibutyrate; final concentration: 10 μM). The cells were observed by the fluorescence microscope similar to the above.
The following was used as a control; a group which was not treated with PDBu, and CHO.K1 cells to which only DIC was introduced (note that DIC is a vector used for introducing into cells the above-mentioned fused protein of DsRed and PKC having at its N terminal end a tag polypeptide indicated by sequence (A). The cells were observed as mentioned above at predetermined wavelength (515 nm to 560 nm). The results are shown in FIG. 11.

[2] = target: T2, tag polypeptide of Example 3, structural formula (11) (not fully specified); assay: fluorescence titration, 0.5 µM probe in HEPES buffer
T2 construct: also called G2
T2 peptide: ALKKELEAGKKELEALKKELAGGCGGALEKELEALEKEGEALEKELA
Protocol: (§1) In the fluorescence titration, the rate of change of the fluorescence intensity at 505 nm was plotted against the concentration of the tag peptide and the dissociation constant was calculated from a theoretical formula assuming 1 to 1 binding of the tag peptide to the probe peptide.
(§2) In FIG. 6, the horizontal axis represents the titer of the tag against the probe whereas the vertical axis represents the relative increase in fluorescence intensity when the fluorescence intensity detected for the probe alone at fluorescence wavelength of 505 nm is estimated as 1. […] In Example 1, the fluorescence intensity at 505 nm in the presence of 1 equivalent of tag peptide was 18 times as high as that measured in the absence of the tag peptide.

[3] = target: T3, tag polypeptide of Example 1, structural formula (8) (not fully specified); assay: as above
T3 construct: Chemically synthesized from two fragments (Chain A with the linker cysteine, Chain B) joined by native chemical ligation; also called A2
T3 peptide: T2 peptide with G9A, G39A
Protocol: as §1, §2

[4] = target: T4, tag polypeptide of Example 2, structural formula (10); assay: as above
T4 construct: also called L2
T4 peptide: T2 peptide with G9L, G39L
Protocol: as §1, §2

[5] = target: T2, tag polypeptide of Example 3, …; assay: fluorescence titration, tag added to 0.5 µM probe in HEPES buffer, 505 nm, 1:1 model
Protocol: as §1, §2

[6] = target: T3, tag polypeptide of Example 1, …; assay: as above
Protocol: as §1, §2

[7] = target: T4, tag polypeptide of Example 2, …; assay: as above
Protocol: as §1, §2

T1 sequence (Q05655 other isoform, or with tags, fused parts or gaps limits assumed): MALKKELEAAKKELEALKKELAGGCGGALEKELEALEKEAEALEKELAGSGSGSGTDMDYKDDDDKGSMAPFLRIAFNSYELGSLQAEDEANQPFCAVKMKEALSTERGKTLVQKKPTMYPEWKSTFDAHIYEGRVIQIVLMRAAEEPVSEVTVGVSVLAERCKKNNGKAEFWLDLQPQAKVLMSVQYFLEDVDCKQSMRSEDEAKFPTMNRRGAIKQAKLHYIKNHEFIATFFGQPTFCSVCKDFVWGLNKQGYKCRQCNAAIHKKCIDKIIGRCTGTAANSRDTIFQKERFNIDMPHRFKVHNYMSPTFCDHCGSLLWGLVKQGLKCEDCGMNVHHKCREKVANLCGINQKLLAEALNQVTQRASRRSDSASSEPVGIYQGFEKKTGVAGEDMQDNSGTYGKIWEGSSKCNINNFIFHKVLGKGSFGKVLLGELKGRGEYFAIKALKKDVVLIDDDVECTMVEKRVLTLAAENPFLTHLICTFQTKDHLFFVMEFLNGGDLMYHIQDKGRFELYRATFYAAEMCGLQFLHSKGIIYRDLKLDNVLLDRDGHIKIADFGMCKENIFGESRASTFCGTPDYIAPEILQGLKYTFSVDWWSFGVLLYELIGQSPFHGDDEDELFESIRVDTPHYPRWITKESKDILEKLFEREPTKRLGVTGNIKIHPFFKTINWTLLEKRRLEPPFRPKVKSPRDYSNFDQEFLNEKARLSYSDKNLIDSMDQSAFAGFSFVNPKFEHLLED

ClAc-GALKKKLEALKKK[Dap](NBD)EALKKKLA-NH2 (also called ClAc-G probe) [probe peptide for crosslink reaction, structural formula (12)]: binds [1].

B1: probe polypeptide of Example 1, structural formula (9) (peptide)
peptide: Ac-ALKKKLEALKKK[Dap](NBD)EALKKKLA-NH2
SMILES: CC(=O)N[C@@H](C)C(=O)N[C@@H](CC(C)C)C(=O)N[C@@H](CCCCN)C(=O)N[C@@H](CCCCN)C(=O)N[C@@H](CCCCN)C(=O)N[C@@H](CC(C)C)C(=O)N[C@@H](CCC(=O)O)C(=O)N[C@@H](C)C(=O)N[C@@H](CC(C)C)C(=O)N[C@@H](CCCCN)C(=O)N[C@@H](CCCCN)C(=O)N[C@@H](CCCCN)C(=O)N[C@@H](CNc1ccc([N+](=O)[O-])c2nonc12)C(=O)N[C@@H](CCC(=O)O)C(=O)N[C@@H](C)C(=O)N[C@@H](CC(C)C)C(=O)N[C@@H](CCCCN)C(=O)N[C@@H](CCCCN)C(=O)N[C@@H](CCCCN)C(=O)N[C@@H](CC(C)C)C(=O)N[C@@H](C)C(N)=O
notes: the text says (9); also called L-NBD; probe peptide
With B1 the “equivalents of tag peptide at which the change in fluorescence saturates” value [2] was 1 equivalent, the “equivalents of tag peptide at which the change in fluorescence saturates” value [3] was 1 equivalent and the “fold increase of fluorescence intensity at 505 nm with 1 equivalent of tag peptide against probe alone” value [3] was 18 times. The “equivalents of tag peptide at which the change in fluorescence saturates” value [4] was 1 equivalent, the Kd [5] was 755 nM and the Kd [6] was 17.5 nM. For the same binder, the Kd [7] was 24.3 nM.
